Measured values from article PMC3827151, “Methionine Mutations of Outer Membrane Protein X Influence Structural Stability and Beta-Barrel Unfolding” (PLoS ONE, 2013).
Where a chain is given by its changes, count along the chain named. Numbers in names are those of the source.

Target: the molecule itself
Test: SDS-PAGE of unboiled samples (gel mobility shift); protein in 8 M urea diluted 20-fold into LDAO, DPC, 60PC or DMPC in 20 mM Tris-HCl pH 9.5, slow folding at 40°C for 3 h; samples not centrifuged; bands of folded and unfolded monomer and dimer

B1: Outer membrane protein X H100N (OmpX^HN) (natural protein, E. coli, UniProt P0A917 24-171, looked up)
chain: ATSTVTGGYAQSDAQGQMNKMGGFNLKYRYEEDNSPLGVIGSFTYTEKSRTASSGDYNKNQYYGITAGPAYRINDWASIYGVVGVGYGKFQTTEYPTYKNDTSDYGFSYGAGLQFNPMENVALDFSYEQSRIRSVDVGTWIAGVGYRF
notes: also called OmpX H100N
- binding result: binds

B2: Outer membrane protein X H100N:M18L:M21L:M118L quadruple mutant (OmpX^M) (natural protein, E. coli, UniProt P0A917 24-171, looked up)
chain: B1 chain with M18L, M21L, M118L
notes: the 'initiator' Met is kept; PDB 1QJ8 is the parent OmpX^HN; also called Met-less construct
- binding result: binds
